Literature values, collected in US20210265014A1, “METHOD AND ELECTRONIC SYSTEM FOR PREDICTING AT LEAST ONE FITNESS VALUE OF A PROTEIN VIA AN EXTENDED NUMERICAL SEQUENCE, RELATED COMPUTER PROGRAM PRODUCT” (PEACCEL, priority 2018, published 2021).

Target: T1, Glucagon like peptide-2 (GLP-2) receptor (Rattus norvegicus, UniProt Q9Z0W0)
T1 sequence (Q9Z0W0 1-550): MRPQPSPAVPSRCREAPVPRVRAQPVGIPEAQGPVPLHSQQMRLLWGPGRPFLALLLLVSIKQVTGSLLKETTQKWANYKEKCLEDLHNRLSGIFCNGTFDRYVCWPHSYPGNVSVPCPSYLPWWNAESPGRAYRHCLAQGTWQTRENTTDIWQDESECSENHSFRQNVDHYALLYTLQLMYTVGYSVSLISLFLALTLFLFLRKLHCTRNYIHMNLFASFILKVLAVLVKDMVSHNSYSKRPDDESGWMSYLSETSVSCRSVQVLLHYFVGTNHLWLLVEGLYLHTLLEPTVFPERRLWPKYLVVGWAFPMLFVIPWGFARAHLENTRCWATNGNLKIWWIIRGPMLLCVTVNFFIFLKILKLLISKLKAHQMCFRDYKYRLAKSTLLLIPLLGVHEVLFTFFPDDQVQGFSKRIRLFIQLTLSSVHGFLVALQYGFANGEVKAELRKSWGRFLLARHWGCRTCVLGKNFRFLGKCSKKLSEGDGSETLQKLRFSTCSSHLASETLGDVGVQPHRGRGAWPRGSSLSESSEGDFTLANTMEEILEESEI
Details: receptor activation, fold increase over basal cAMP production

Substance: A2G: variant of Glucagon like peptide-2 (GLP-2) [Chimera A2G]
- fold-increase in cAMP: 10.00 fold

Substance: D3A: alanine variant of Glucagon like peptide-2 (GLP-2) (HAAGSFSDEMNTILDNLAARDFINWLIQTKITD; Glucagon-like peptide 2; UniProt P01275 146-178, looked up, variant D3A) [Chimera D3A]
- fold-increase in cAMP: 1.02 fold

Substance: D8A: alanine variant of Glucagon like peptide-2 (GLP-2) (HADGSFSAEMNTILDNLAARDFINWLIQTKITD; Glucagon-like peptide 2; UniProt P01275 146-178, looked up, variant D8A) [Chimera D8A]
- fold-increase in cAMP: 7.53 fold

Substance: D15A: alanine variant of Glucagon like peptide-2 (GLP-2) (HADGSFSDEMNTILANLAARDFINWLIQTKITD; Glucagon-like peptide 2; UniProt P01275 146-178, looked up, variant D15A) [Chimera D15A]
- fold-increase in cAMP: 4.54 fold

Substance: D21A: alanine variant of Glucagon like peptide-2 (GLP-2) (HADGSFSDEMNTILDNLAARAFINWLIQTKITD; Glucagon-like peptide 2; UniProt P01275 146-178, looked up, variant D21A) [Chimera D21A]
- fold-increase in cAMP: 4.42 fold

Substance: D33A: alanine variant of Glucagon like peptide-2 (GLP-2) (HADGSFSDEMNTILDNLAARDFINWLIQTKITA; Glucagon-like peptide 2; UniProt P01275 146-178, looked up, variant D33A) [Chimera D33A]
- fold-increase in cAMP: 3.41 fold

Substance: E9A: alanine variant of Glucagon like peptide-2 (GLP-2) (HADGSFSDAMNTILDNLAARDFINWLIQTKITD; Glucagon-like peptide 2; UniProt P01275 146-178, looked up, variant E9A) [Chimera E9A]
- fold-increase in cAMP: 3.76 fold

Substance: F6A: alanine variant of Glucagon like peptide-2 (GLP-2) (HADGSASDEMNTILDNLAARDFINWLIQTKITD; Glucagon-like peptide 2; UniProt P01275 146-178, looked up, variant F6A) [Chimera F6A]
- fold-increase in cAMP: 1.67 fold

Substance: F22A: alanine variant of Glucagon like peptide-2 (GLP-2) (HADGSFSDEMNTILDNLAARDAINWLIQTKITD; Glucagon-like peptide 2; UniProt P01275 146-178, looked up, variant F22A) [Chimera F22A]
- fold-increase in cAMP: 1.61 fold

Substance: G4A: alanine variant of Glucagon like peptide-2 (GLP-2) (HADASFSDEMNTILDNLAARDFINWLIQTKITD; Glucagon-like peptide 2; UniProt P01275 146-178, looked up, variant G4A) [Chimera G4A]
- fold-increase in cAMP: 2.87 fold

Substance: H1A: alanine variant of Glucagon like peptide-2 (GLP-2) (AADGSFSDEMNTILDNLAARDFINWLIQTKITD; Glucagon-like peptide 2; UniProt P01275 146-178, looked up, variant H1A) [Chimera H1A]
- fold-increase in cAMP: 0.78 fold

Substance: I13A: alanine variant of Glucagon like peptide-2 (GLP-2) (HADGSFSDEMNTALDNLAARDFINWLIQTKITD; Glucagon-like peptide 2; UniProt P01275 146-178, looked up, variant I13A) [Chimera I13A]
- fold-increase in cAMP: 2.45 fold

Substance: I23A: alanine variant of Glucagon like peptide-2 (GLP-2) (HADGSFSDEMNTILDNLAARDFANWLIQTKITD; Glucagon-like peptide 2; UniProt P01275 146-178, looked up, variant I23A) [Chimera I23A]
- fold-increase in cAMP: 2.57 fold

Substance: I27A: alanine variant of Glucagon like peptide-2 (GLP-2) (HADGSFSDEMNTILDNLAARDFINWLAQTKITD; Glucagon-like peptide 2; UniProt P01275 146-178, looked up, variant I27A) [Chimera I27A]
- fold-increase in cAMP: 5.02 fold

Substance: I31A: alanine variant of Glucagon like peptide-2 (GLP-2) (HADGSFSDEMNTILDNLAARDFINWLIQTKATD; Glucagon-like peptide 2; UniProt P01275 146-178, looked up, variant I31A) [Chimera I31A]
- fold-increase in cAMP: 4.42 fold

Substance: K30A: alanine variant of Glucagon like peptide-2 (GLP-2) (HADGSFSDEMNTILDNLAARDFINWLIQTAITD; Glucagon-like peptide 2; UniProt P01275 146-178, looked up, variant K30A) [Chimera K30A]
- fold-increase in cAMP: 0.84 fold

Substance: L14A: alanine variant of Glucagon like peptide-2 (GLP-2) (HADGSFSDEMNTIADNLAARDFINWLIQTKITD; Glucagon-like peptide 2; UniProt P01275 146-178, looked up, variant L14A) [Chimera L14A]
- fold-increase in cAMP: 2.03 fold

Substance: L17A: alanine variant of Glucagon like peptide-2 (GLP-2) (HADGSFSDEMNTILDNAAARDFINWLIQTKITD; Glucagon-like peptide 2; UniProt P01275 146-178, looked up, variant L17A) [Chimera L17A]
- fold-increase in cAMP: 1.02 fold

Substance: L26A: alanine variant of Glucagon like peptide-2 (GLP-2) (HADGSFSDEMNTILDNLAARDFINWAIQTKITD; Glucagon-like peptide 2; UniProt P01275 146-178, looked up, variant L26A) [Chimera L26A]
- fold-increase in cAMP: 2.33 fold

Substance: M10A: alanine variant of Glucagon like peptide-2 (GLP-2) (HADGSFSDEANTILDNLAARDFINWLIQTKITD; Glucagon-like peptide 2; UniProt P01275 146-178, looked up, variant M10A) [Chimera M10A]
- fold-increase in cAMP: 0.78 fold

Substance: N11A: alanine variant of Glucagon like peptide-2 (GLP-2) (HADGSFSDEMATILDNLAARDFINWLIQTKITD; Glucagon-like peptide 2; UniProt P01275 146-178, looked up, variant N11A) [Chimera N11A]
- fold-increase in cAMP: 7.65 fold

Substance: N16A: alanine variant of Glucagon like peptide-2 (GLP-2) (HADGSFSDEMNTILDALAARDFINWLIQTKITD; Glucagon-like peptide 2; UniProt P01275 146-178, looked up, variant N16A) [Chimera N16A]
- fold-increase in cAMP: 5.92 fold

Substance: N24A: alanine variant of Glucagon like peptide-2 (GLP-2) (HADGSFSDEMNTILDNLAARDFIAWLIQTKITD; Glucagon-like peptide 2; UniProt P01275 146-178, looked up, variant N24A) [Chimera N24A]
- fold-increase in cAMP: 10.00 fold

Substance: Q28A: alanine variant of Glucagon like peptide-2 (GLP-2) (HADGSFSDEMNTILDNLAARDFINWLIATKITD; Glucagon-like peptide 2; UniProt P01275 146-178, looked up, variant Q28A) [Chimera Q28A]
- fold-increase in cAMP: 5.80 fold

Substance: R20A: alanine variant of Glucagon like peptide-2 (GLP-2) (HADGSFSDEMNTILDNLAAADFINWLIQTKITD; Glucagon-like peptide 2; UniProt P01275 146-178, looked up, variant R20A) [Chimera R20A]
- fold-increase in cAMP: 3.94 fold

Substance: S5A: alanine variant of Glucagon like peptide-2 (GLP-2) (HADGAFSDEMNTILDNLAARDFINWLIQTKITD; Glucagon-like peptide 2; UniProt P01275 146-178, looked up, variant S5A) [Chimera S5A]
- fold-increase in cAMP: 4.00 fold

Substance: S7A: alanine variant of Glucagon like peptide-2 (GLP-2) (HADGSFADEMNTILDNLAARDFINWLIQTKITD; Glucagon-like peptide 2; UniProt P01275 146-178, looked up, variant S7A) [Chimera S7A]
- fold-increase in cAMP: 7.59 fold

Substance: T12A: alanine variant of Glucagon like peptide-2 (GLP-2) (HADGSFSDEMNAILDNLAARDFINWLIQTKITD; Glucagon-like peptide 2; UniProt P01275 146-178, looked up, variant T12A) [Chimera T12A]
- fold-increase in cAMP: 3.11 fold

Substance: T29A: alanine variant of Glucagon like peptide-2 (GLP-2) (HADGSFSDEMNTILDNLAARDFINWLIQAKITD; Glucagon-like peptide 2; UniProt P01275 146-178, looked up, variant T29A) [Chimera T29A]
- fold-increase in cAMP: 4.78 fold
